The target in test [1] is T1, 精製連鎖球菌抗原(SA)I/II (Streptococcus mutans, UniProt P23504 39-1532).
T1 construct: Purified antigen; also called 固定化精製連鎖球菌抗原
T1 sequence (looked up): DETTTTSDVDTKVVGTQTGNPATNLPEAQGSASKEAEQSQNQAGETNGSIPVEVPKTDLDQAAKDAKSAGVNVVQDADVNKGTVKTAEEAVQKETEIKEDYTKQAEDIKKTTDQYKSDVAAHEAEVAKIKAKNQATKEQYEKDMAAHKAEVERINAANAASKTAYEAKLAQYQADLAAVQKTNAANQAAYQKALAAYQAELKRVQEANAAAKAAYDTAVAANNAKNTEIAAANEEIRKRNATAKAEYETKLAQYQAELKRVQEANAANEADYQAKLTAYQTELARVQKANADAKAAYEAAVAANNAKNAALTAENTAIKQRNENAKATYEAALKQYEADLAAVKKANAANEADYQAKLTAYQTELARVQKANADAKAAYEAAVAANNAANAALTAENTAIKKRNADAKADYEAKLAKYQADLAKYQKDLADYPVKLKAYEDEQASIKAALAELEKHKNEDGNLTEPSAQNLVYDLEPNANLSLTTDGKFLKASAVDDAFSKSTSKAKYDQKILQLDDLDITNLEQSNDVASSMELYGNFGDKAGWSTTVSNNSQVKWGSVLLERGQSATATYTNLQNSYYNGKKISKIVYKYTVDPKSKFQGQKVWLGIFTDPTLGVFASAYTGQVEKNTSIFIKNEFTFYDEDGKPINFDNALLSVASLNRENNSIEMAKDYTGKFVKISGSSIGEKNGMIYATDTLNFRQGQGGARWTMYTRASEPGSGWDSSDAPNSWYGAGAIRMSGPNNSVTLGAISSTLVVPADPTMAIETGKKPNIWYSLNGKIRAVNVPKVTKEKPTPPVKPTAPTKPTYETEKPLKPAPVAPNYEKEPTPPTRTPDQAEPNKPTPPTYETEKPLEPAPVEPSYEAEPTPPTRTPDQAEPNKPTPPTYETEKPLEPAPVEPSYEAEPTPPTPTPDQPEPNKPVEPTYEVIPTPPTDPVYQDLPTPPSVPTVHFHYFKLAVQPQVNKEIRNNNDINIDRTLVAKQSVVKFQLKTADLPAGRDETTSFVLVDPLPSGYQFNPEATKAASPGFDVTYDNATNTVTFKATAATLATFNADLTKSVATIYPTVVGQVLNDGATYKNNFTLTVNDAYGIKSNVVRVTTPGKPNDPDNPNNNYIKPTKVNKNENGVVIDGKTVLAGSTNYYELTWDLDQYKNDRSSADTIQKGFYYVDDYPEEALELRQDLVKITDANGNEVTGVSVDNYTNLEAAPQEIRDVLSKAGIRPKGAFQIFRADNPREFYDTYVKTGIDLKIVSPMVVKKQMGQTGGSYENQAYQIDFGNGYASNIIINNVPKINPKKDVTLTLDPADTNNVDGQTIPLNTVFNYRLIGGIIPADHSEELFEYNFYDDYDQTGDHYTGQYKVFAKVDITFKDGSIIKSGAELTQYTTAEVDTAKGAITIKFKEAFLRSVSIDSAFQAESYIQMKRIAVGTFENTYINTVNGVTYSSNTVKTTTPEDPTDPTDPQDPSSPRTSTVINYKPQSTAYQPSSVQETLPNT
Kind of test: competition ELISA on purified SA I/II; competitor 125I-labelled mouse Guy's13. In general terms: An ELISA detects its analyte on a solid surface through an enzyme-linked reagent.

Test [2] concerns the target T1, 精製連鎖球菌抗原(SA)I/II. The experiment in a line: ELISA on SA I/II, plant extracts.

Where only a bound is given, the exact number is not on record here.

Take “植物G13 (本来のガンマ重鎖のGuy's13IgG、タバコで発現) (antibody)”: in the test with 精製連鎖球菌抗原(SA)I/II [1], the 標識マウスGuy's13の阻害% was < 85%.
Regarding “植物G1/A (Guy's13可変領域−(IgG1 CH1)−(IgA CH2)−(IgA CH3) ハイブリッド重鎖とカッパ鎖) (from UniProt P01878 101-344) (antibody)”, the 標識マウスGuy's13の阻害% in the test with 精製連鎖球菌抗原(SA)I/II [1] was < 85%.
The same measure, in the same setting: for “植物G2/A (var−γ1−γ2−α2−α3ドメインを含むIgG/IgAハイブリッド重鎖のGuy's13) (from UniProt P01878 101-344) (antibody)” the value was < 85%.

B1: マウスJ鎖 (J鎖のみを発現する植物) (other, mouse, UniProt P01592 22-159, looked up)
chain: GDDEATILADNKCMCTRVTSRIIPSTEDPNEDIVERNIRIVVPLNNRENISDPTSPLRRNFVYHLSDVCKKCDPVEVELEDQVVTATQSNICNEDDGVPETCYMYDRNKCYTTMVPLRYHGETKMVQAALTPDSCYPD
notes: Tested as extract of tobacco plants that express J chain only, or by co-expression
As to B1, the binding result in the test with 精製連鎖球菌抗原(SA)I/II [2] is listed as “no binding”.

These data come from patent JP2008194054A (dated 2008).
